Test system: COVID-19
Experiment: Intubated hospitalized critically ill COVID-19 patients
Format: in vivo, human
Conditions: patients in a critical condition with cytokine storm

B1: lactoferrin (protein, UniProt P24627 20-708, looked up)
Lactotransferrin: APRKNVRWCTISQPEWFKCRRWQWRMKKLGAPSITCVRRAFALECIRAIAEKKADAVTLDGGMVFEAGRDPYKLRPVAAEIYGTKESPQTHYYAVAVVKKGSNFQLDQLQGRKSCHTGLGRSAGWIIPMGILRPYLSWTESLEPLQGAVAKFFSASCVPCIDRQAYPNLCQLCKGEGENQCACSSREPYFGYSGAFKCLQDGAGDVAFVKETTVFENLPEKADRDQYELLCLNNSRAPVDAFKECHLAQVPSHAVVARSVDGKEDLIWKLLSKAQEKFGKNKSRSFQLFGSPPGQRDLLFKDSALGFLRIPSKVDSALYLGSRYLTTLKNLRETAEEVKARYTRVVWCAVGPEEQKKCQQWSQQSGQNVTCATASTTDDCIVLVLKGEADALNLDGGYIYTAGKCGLVPVLAENRKSSKHSSLDCVLRPTEGYLAVAVVKKANEGLTWNSLKDKKSCHTAVDRTAGWNIPMGLIVNQTGSCAFDEFFSQSCAPGADPKSRLCALCAGDDQGLDKCVPNSKEKYYGYTGAFRCLAEDVGDVAFVKNDTVWENTNGESTADWAKNLNREDFRLLCLDGTRKPVTEAQSCHLAVAPNHAVVSRSDRAAHVKQVLLHQQALFGKNGKNCPDKFCLFKSETKNLLFNDNTECLAKLGGRPTYEEYLGTEYVTAIANLKKCSTSPLLEACAFLTR
notes: bovine LF used
- IL-6, TNF alpha, ferritin and DD2 parameters: normalizing or decreasing
